Target: T1, human epidermal growth factor receptor (EGFR) (Homo sapiens (A431 and FaDu cells), UniProt P00533)
T1 construct: human EGFR, full-length receptor presented by living A431 (epidermoid carcinoma) and FaDu (squamous carcinoma) cells; also called human EGFR; source: endogenous, on living A431 and FaDu cells
Assay: radioligand binding; ^99mTc-labelled sdAb on A431 and FaDu cells, 1 h on ice, with or without pre-blocking by a 40-fold excess of unlabeled Cetuximab; read-out % ID/mg protein
Settings: one partner purified

- binding result: binds
B1: EGFR-specific single-domain antibody EG2 (VHH)
VHH: QVKLEESGGGLVQAGDSLRVSCAASGRDFSDYVMGWFRQAPGKEREFVAAISRNGLTTRYADSVKGRFTISRDNDKNMVYLQMNSLKPEDTAVYYCAVNSAGTYVSPRSREYDYWGQGTQVTVSS
notes: an initial methionine was added by the NcoI site; Camelid-derived sdAb; Intradomain disulfide bridge formed in about 98% of the purified protein; also called sdAb EG2; ^99mTc-EG2; source: E. coli SHuffle T7 Express, cytoplasm (pET-28b:EG2), purified (Ni-IDA IMAC); not shown: His6, C-terminal, kept

From paper PMC3818982 (Microbial Cell Factories, 2013)
